Assay results as given in the supplement of paper PMC10567573.

B1: VENTX (parent)
chain: VFQHHQYLSPLERKRLAREMQLSE
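Further: lentivirally expressed fusions sorted by FACS into six bins by GFP to DsRed ratio, PSI derived from sequencing read proportions per bin multiplied by bin number.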

Variants of: B1
Experiment: protein stability index of a GFP-peptide fusion (GPS, HEK-293T) (PSI 1-6); higher = more stable
Details: c terminus: a fixed tail appended
NFQHHQYLSPLERKRLAREMQLSE [V1N] gave a protein stability index of 2.9.
Work on YFQHHQYLSPLERKRLAREMQLSE [V1Y] yielded a protein stability index of 2.36.
Work on GFQHHQYLSPLERKRLAREMQLSE [V1G] yielded a protein stability index of 2.09.
For CFQHHQYLSPLERKRLAREMQLSE [V1C], the protein stability index was 2.45.
In the case of SFQHHQYLSPLERKRLAREMQLSE [V1S], the protein stability index is reported as 3.1.
MFQHHQYLSPLERKRLAREMQLSE [V1M] showed a protein stability index of 2.38.
With KFQHHQYLSPLERKRLAREMQLSE [V1K] the protein stability index was 2.6.
In the case of QFQHHQYLSPLERKRLAREMQLSE [V1Q], the protein stability index is reported as 2.19.
Variant FFQHHQYLSPLERKRLAREMQLSE [V1F] has a protein stability index of 2.1.
Variant TFQHHQYLSPLERKRLAREMQLSE [V1T] has a protein stability index of 2.88.
IFQHHQYLSPLERKRLAREMQLSE [V1I] gave a protein stability index of 2.36.
With RFQHHQYLSPLERKRLAREMQLSE [V1R] the protein stability index was 2.42.
In the case of HFQHHQYLSPLERKRLAREMQLSE [V1H], the protein stability index is reported as 2.34.
Variant EFQHHQYLSPLERKRLAREMQLSE [V1E] has a protein stability index of 2.49.
For AFQHHQYLSPLERKRLAREMQLSE [V1A], the protein stability index was 2.28.
For WFQHHQYLSPLERKRLAREMQLSE [V1W], the protein stability index was 1.92.
Variant DFQHHQYLSPLERKRLAREMQLSE [V1D] has a protein stability index of 2.83.
For PFQHHQYLSPLERKRLAREMQLSE [V1P], the protein stability index was 2.35.
Variant VFQEHQYLSPLERKRLAREMQLSE [H4E] has a protein stability index of 3.52.
VFQMHQYLSPLERKRLAREMQLSE [H4M] showed a protein stability index of 2.31.
VFQWHQYLSPLERKRLAREMQLSE [H4W] showed a protein stability index of 2.03.
Work on VFQKHQYLSPLERKRLAREMQLSE [H4K] yielded a protein stability index of 2.5.
VFQGHQYLSPLERKRLAREMQLSE [H4G] gave a protein stability index of 3.26.
Work on VFQCHQYLSPLERKRLAREMQLSE [H4C] yielded a protein stability index of 2.56.
With VFQLHQYLSPLERKRLAREMQLSE [H4L] the protein stability index was 2.89.
With VFQSHQYLSPLERKRLAREMQLSE [H4S] the protein stability index was 2.91.
In the case of VFQQHQYLSPLERKRLAREMQLSE [H4Q], the protein stability index is reported as 3.5.
With VFQAHQYLSPLERKRLAREMQLSE [H4A] the protein stability index was 3.37.
Work on VFQIHQYLSPLERKRLAREMQLSE [H4I] yielded a protein stability index of 2.43.
Work on VFQFHQYLSPLERKRLAREMQLSE [H4F] yielded a protein stability index of 1.69.
With VFQDHQYLSPLERKRLAREMQLSE [H4D] the protein stability index was 3.68.
With VFQYHQYLSPLERKRLAREMQLSE [H4Y] the protein stability index was 2.21.
In the case of VFQVHQYLSPLERKRLAREMQLSE [H4V], the protein stability index is reported as 2.7.
Variant VFQTHQYLSPLERKRLAREMQLSE [H4T] has a protein stability index of 3.06.
Work on VFQPHQYLSPLERKRLAREMQLSE [H4P] yielded a protein stability index of 3.27.
In the case of VFQNHQYLSPLERKRLAREMQLSE [H4N], the protein stability index is reported as 2.85.
With VFQRHQYLSPLERKRLAREMQLSE [H4R] the protein stability index was 2.37.
With VFGHHQYLSPLERKRLAREMQLSE [Q3G] the protein stability index was 2.82.
In the case of VFYHHQYLSPLERKRLAREMQLSE [Q3Y], the protein stability index is reported as 2.56.
In the case of VFWHHQYLSPLERKRLAREMQLSE [Q3W], the protein stability index is reported as 1.79.
Variant VFAHHQYLSPLERKRLAREMQLSE [Q3A] has a protein stability index of 3.03.
Variant VFFHHQYLSPLERKRLAREMQLSE [Q3F] has a protein stability index of 1.66.
With VFHHHQYLSPLERKRLAREMQLSE [Q3H] the protein stability index was 2.11.
Variant VFTHHQYLSPLERKRLAREMQLSE [Q3T] has a protein stability index of 2.96.
Variant VFDHHQYLSPLERKRLAREMQLSE [Q3D] has a protein stability index of 4.04.
For VFMHHQYLSPLERKRLAREMQLSE [Q3M], the protein stability index was 2.27.
VFEHHQYLSPLERKRLAREMQLSE [Q3E] gave a protein stability index of 3.84.
VFRHHQYLSPLERKRLAREMQLSE [Q3R] gave a protein stability index of 2.17.
VFCHHQYLSPLERKRLAREMQLSE [Q3C] showed a protein stability index of 1.85.
Variant VFNHHQYLSPLERKRLAREMQLSE [Q3N] has a protein stability index of 3.05.
Variant VFSHHQYLSPLERKRLAREMQLSE [Q3S] has a protein stability index of 3.81.
Work on VFLHHQYLSPLERKRLAREMQLSE [Q3L] yielded a protein stability index of 1.29.
VFPHHQYLSPLERKRLAREMQLSE [Q3P] showed a protein stability index of 2.98.
VFKHHQYLSPLERKRLAREMQLSE [Q3K] gave a protein stability index of 3.
Work on VFVHHQYLSPLERKRLAREMQLSE [Q3V] yielded a protein stability index of 2.78.
VFIHHQYLSPLERKRLAREMQLSE [Q3I] showed a protein stability index of 2.07.
Variant VFQHCQYLSPLERKRLAREMQLSE [H5C] has a protein stability index of 2.17.
In the case of VFQHSQYLSPLERKRLAREMQLSE [H5S], the protein stability index is reported as 2.63.
VFQHEQYLSPLERKRLAREMQLSE [H5E] gave a protein stability index of 3.71.
In the case of VFQHTQYLSPLERKRLAREMQLSE [H5T], the protein stability index is reported as 4.21.
In the case of VFQHIQYLSPLERKRLAREMQLSE [H5I], the protein stability index is reported as 2.08.
For VFQHFQYLSPLERKRLAREMQLSE [H5F], the protein stability index was 2.96.
VFQHAQYLSPLERKRLAREMQLSE [H5A] showed a protein stability index of 2.5.
For VFQHRQYLSPLERKRLAREMQLSE [H5R], the protein stability index was 1.93.
Work on VFQHLQYLSPLERKRLAREMQLSE [H5L] yielded a protein stability index of 2.42.
For VFQHMQYLSPLERKRLAREMQLSE [H5M], the protein stability index was 3.19.
For VFQHKQYLSPLERKRLAREMQLSE [H5K], the protein stability index was 2.94.
With VFQHQQYLSPLERKRLAREMQLSE [H5Q] the protein stability index was 3.01.
For VFQHDQYLSPLERKRLAREMQLSE [H5D], the protein stability index was 3.47.
With VFQHVQYLSPLERKRLAREMQLSE [H5V] the protein stability index was 2.78.
For VFQHGQYLSPLERKRLAREMQLSE [H5G], the protein stability index was 3.71.
VFQHPQYLSPLERKRLAREMQLSE [H5P] gave a protein stability index of 3.21.
Variant VFQHNQYLSPLERKRLAREMQLSE [H5N] has a protein stability index of 2.83.
VFQHYQYLSPLERKRLAREMQLSE [H5Y] gave a protein stability index of 2.43.
Variant VFQHWQYLSPLERKRLAREMQLSE [H5W] has a protein stability index of 1.96.
Work on VFQHHFYLSPLERKRLAREMQLSE [Q6F] yielded a protein stability index of 1.84.
With VFQHHIYLSPLERKRLAREMQLSE [Q6I] the protein stability index was 2.17.
VFQHHPYLSPLERKRLAREMQLSE [Q6P] showed a protein stability index of 2.09.
In the case of VFQHHTYLSPLERKRLAREMQLSE [Q6T], the protein stability index is reported as 2.75.
Variant VFQHHLYLSPLERKRLAREMQLSE [Q6L] has a protein stability index of 2.02.
VFQHHMYLSPLERKRLAREMQLSE [Q6M] showed a protein stability index of 2.56.
VFQHHVYLSPLERKRLAREMQLSE [Q6V] gave a protein stability index of 2.42.
With VFQHHSYLSPLERKRLAREMQLSE [Q6S] the protein stability index was 2.3.
VFQHHCYLSPLERKRLAREMQLSE [Q6C] showed a protein stability index of 1.83.
VFQHHEYLSPLERKRLAREMQLSE [Q6E] showed a protein stability index of 3.66.
VFQHHYYLSPLERKRLAREMQLSE [Q6Y] gave a protein stability index of 2.09.
VFQHHGYLSPLERKRLAREMQLSE [Q6G] gave a protein stability index of 2.51.
Work on VFQHHRYLSPLERKRLAREMQLSE [Q6R] yielded a protein stability index of 2.47.
In the case of VFQHHAYLSPLERKRLAREMQLSE [Q6A], the protein stability index is reported as 2.75.
In the case of VFQHHHYLSPLERKRLAREMQLSE [Q6H], the protein stability index is reported as 3.06.
VFQHHNYLSPLERKRLAREMQLSE [Q6N] showed a protein stability index of 3.05.
For VFQHHWYLSPLERKRLAREMQLSE [Q6W], the protein stability index was 2.17.
In the case of VFQHHKYLSPLERKRLAREMQLSE [Q6K], the protein stability index is reported as 2.69.
With VFQHHDYLSPLERKRLAREMQLSE [Q6D] the protein stability index was 3.23.
